Measured values: paper doi:10.1101/2020.12.31.424868 (bioRxiv, 2020)
Where a chain is given by its changes, count along the chain named.

B1: FluA-151 (antibody, V domains shown)
VH: QELLVESGGGVVQPGRSLRLSCVGSGFTFRTYGMHWVRQAPGRRPEWVALISNDGSREYYADSVKGRFTISRDNSRNTLYLQMNSLTVADTAVYYCAKFIPDPNYGEFYFHHWGQGTLVTVSS
VL: DIQMTQSPSSLSASVEDRVTITCRASQSINKYLNWYQQKPGKAPKLLIYAADNLQDAVPSRFSGSGSGTDFTLTITGLHPDDLATYYCQQSYTIPPTFGHGTKVEIK
B2: FluA-20 (antibody, V domains shown)
VH: QVQLEESGPGLVKPSETLSLTCSVSGVSVTSDIYYWTWIRQPPGKGLEWIGYIFYNGDTNYNPSLKSRVTMSIDTSKNEFSLRLTSVTAADTAVYFCARGTEDLGYCSSGSCPNHWGQGTLVTVSS
VL: DIVMTQSPSSLSASIGDRVTITCRPSQNIRSFLNWFQHKPGKAPKLLIYAASNLQSGVPSRFSGSGSGTEFTLTIRSLQPEDFATYYCQQSYNTPPTFGQGTKVEIK
B3: mAb 5J8 (antibody, V domains shown)
VH: EVQLVESGPGLVKPSDILSLTCAVSGYSISSNYYWGWIRQPPGKGLEWIGSIYHSGSTYYKPSLESRLGISVDTSKNQFSLKLSFVSAADTAVYYCARHVRSGYPDTAYYFDKWGQGTLVTVSS
VL: SYVLTQPPSVSVAPGETARISCGGNNIGTKVLHWYQQTPGQAPVLVVYDDSDRPSGIPERFSGSNSGNTATLTISRVEVGDEADYYCQVWDISTDQAVFGGGTKLTVL
B4: mAb H5.28, hybridoma-generated IgG (antibody, V domains shown)
VH: EVQLVESGGGLVQPGGSLRLSCAASGFTFSTYWMTWVRQAPGKGLEWVANINQDGGEKYFVDSVKGRFTISRDNAKNSLFLQMNTLRAEDTAVYYCARGFLERLLLGRQGAYYYGMDVWGQGTTVTVSS
VL: DIQMTQSPSSLSASVGDRVSMTCRASQIISSSLNWYQQKPGKAPKLLIYAASNLQSGVPSRFSGSGSGTDFTLTISSLQPEDFATYYCQQSYSTPPELTFGGGTKVEIK
B5: mAb H5.31, hybridoma-generated IgG (antibody, V domains shown)
VH: EVQLVQSGGGLVQPGGSLRLSCEASRFTSSSYWITWVRQAPGKGLEWVANIKQDGSEKYFVDSVKGRFTISRDNASNSLYLQMSSLRAEDTAVYYCARGFLERLLLGRQGAYYYGMDVWGQGTTVTVSS
VL: B4 VL with Q3V, S9F, S20T, I28S, S93T, T94M
B6: H5.28 Fab (recombinant) (Fab, V domains shown)
VH: B4 VH
VL: B4 VL

Legend:
[1] = target: HA from A/New York/107/2003 (Influenza A virus A/New York/107/2003 …, UniProt B2LVD7, strain); experiment: ELISA
[2] = target: monomeric HA head domain from H1 A/California/07/2009 (influenza A virus A/California/07/2009 …, UniProt C3W5X2); experiment: BLI
[3] = target: trimeric recombinant HA from H1 A/California/04/2009 (Influenza A virus A/California/04/2009 …, UniProt C3W5S1); experiment: BLI
IN/05 HA = IN/05 HA (Influenza A virus A/Indonesia/5/2005 …, UniProt C5MRF2, strain); experiment: ELISA
[4] = target: head domain of VN/04 HA (A/Vietnam/1203/2004 H5N1), monomeric (Influenza A virus A/Vietnam/1203/2004 …, strain); experiment: HDX-MS

Binder	binding result [1]	binding result (IN/05 HA)	other results
B1	no binding	–	–
B2	no binding	–	–
B3	–	–	binding result [2]: binds; binding result [3]: binds
B4	–	binds	–
B5	–	binds	–
B6	–	–	binding result [4]: binds
